Data as given in patent US20140349405, “RNA-DIRECTED DNA CLEAVAGE AND GENE EDITING BY CAS9 ENZYME FROM NEISSERIA MENINGITIDIS” (WISCONSIN ALUMNI RESEARCH FOUNDATION, published 2014).
Substitutions are numbered along the chain they refer to.

B1: Neisseria CRISPR repeat promoter wt (dsDNA)
DNA 1: GTTGTAGCTCCCTTTCTCATTTCGCAGTGCTACAAT
DNA 2: ATTGTAGCACTGCGAAATGAGAAAGGGAGCTACAAC
B2: Neisseria CRISPR repeat promoter mut (dsDNA)
DNA 1: B1 DNA 1 with T31C, A32C
DNA 2: B1 DNA 2 with T5G, A6G
modifications: [31-32]

Legend:
[1] = biological target: T1, RNA polymerase sigma70 holoenzyme (Escherichia coli, UniProt P0A7Z4;P0A8V2;P0A8T7;P0A800;P00579 …); test: in vitro transcription, 168 nt product; 10 mM Mg, 100 mM KCl, 37 C; details: tags: Epicentre, sigma-saturated; chain copies: 2,1,1,1,1
[2] = biological target: T1, RNA polymerase sigma70 holoenzyme; test: in vitro transcription, no transcript; details: tags: Epicentre, sigma-saturated; chain copies: 2,1,1,1,1

T1 sequence (P0A7Z4 whole entry, chain 1 of 4): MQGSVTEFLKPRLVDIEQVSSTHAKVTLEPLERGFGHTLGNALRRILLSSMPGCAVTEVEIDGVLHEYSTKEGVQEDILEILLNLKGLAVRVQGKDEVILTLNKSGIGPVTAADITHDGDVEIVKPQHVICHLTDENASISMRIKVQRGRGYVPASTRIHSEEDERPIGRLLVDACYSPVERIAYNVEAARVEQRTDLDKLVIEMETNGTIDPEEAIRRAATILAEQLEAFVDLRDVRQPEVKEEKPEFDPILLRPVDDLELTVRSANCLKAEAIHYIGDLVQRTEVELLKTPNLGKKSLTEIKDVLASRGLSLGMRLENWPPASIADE
T1 sequence (P0A8V2 whole entry, chain 2 of 4): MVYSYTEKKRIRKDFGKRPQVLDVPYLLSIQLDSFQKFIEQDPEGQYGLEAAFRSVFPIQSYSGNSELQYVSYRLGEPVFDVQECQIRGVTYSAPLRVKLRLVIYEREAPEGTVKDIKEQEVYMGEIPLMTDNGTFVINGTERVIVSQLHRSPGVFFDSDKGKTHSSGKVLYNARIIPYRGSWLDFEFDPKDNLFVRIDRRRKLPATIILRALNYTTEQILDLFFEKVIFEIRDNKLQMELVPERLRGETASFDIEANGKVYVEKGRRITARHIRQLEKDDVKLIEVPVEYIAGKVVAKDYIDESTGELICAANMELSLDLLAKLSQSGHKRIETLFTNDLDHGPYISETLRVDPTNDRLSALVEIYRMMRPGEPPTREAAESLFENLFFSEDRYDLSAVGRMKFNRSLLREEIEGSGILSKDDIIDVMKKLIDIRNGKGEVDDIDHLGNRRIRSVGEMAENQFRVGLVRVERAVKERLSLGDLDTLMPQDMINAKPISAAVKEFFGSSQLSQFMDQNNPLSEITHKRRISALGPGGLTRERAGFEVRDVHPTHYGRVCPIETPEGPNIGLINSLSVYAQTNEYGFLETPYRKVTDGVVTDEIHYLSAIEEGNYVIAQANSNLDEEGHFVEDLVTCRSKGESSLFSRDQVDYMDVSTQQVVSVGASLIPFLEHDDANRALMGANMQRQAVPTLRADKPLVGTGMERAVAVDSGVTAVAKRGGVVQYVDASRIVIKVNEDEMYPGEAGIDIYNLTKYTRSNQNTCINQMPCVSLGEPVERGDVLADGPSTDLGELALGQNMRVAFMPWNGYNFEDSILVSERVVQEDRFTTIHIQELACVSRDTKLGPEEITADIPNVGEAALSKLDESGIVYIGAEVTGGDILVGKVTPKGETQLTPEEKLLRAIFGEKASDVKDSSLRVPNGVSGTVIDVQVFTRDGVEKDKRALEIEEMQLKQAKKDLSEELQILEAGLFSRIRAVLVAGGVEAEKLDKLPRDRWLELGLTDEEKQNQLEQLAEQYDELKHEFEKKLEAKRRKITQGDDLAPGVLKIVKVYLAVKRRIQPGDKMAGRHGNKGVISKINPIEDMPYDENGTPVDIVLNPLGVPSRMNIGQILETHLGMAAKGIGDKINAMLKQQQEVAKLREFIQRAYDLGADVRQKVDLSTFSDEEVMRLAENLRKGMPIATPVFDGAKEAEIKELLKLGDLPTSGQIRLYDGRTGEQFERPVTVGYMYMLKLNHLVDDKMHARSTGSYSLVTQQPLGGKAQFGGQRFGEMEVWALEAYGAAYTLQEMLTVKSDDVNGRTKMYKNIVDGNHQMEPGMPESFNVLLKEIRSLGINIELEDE
T1 sequence (P0A800 2-91, chain 4 of 4): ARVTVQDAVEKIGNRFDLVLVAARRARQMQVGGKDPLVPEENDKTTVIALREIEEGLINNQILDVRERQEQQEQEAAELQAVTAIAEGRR
T1 sequence (P00579 whole entry, chain 5 of 4): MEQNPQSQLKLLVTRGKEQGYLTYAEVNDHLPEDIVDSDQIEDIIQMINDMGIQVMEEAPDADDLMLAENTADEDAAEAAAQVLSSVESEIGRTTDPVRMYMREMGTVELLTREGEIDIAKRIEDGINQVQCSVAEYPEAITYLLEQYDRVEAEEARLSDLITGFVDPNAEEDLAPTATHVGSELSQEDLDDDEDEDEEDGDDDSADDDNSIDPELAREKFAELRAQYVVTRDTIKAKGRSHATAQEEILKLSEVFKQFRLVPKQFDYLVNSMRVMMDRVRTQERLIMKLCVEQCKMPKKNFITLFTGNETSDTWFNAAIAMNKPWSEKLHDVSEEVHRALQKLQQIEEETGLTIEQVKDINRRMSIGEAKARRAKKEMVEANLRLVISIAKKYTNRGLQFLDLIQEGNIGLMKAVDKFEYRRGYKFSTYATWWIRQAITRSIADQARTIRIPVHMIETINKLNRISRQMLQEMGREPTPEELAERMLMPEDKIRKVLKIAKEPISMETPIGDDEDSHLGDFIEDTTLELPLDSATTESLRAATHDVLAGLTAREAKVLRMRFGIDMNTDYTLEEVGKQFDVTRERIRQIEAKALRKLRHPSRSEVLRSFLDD

Binder | binding result [1] | binding result [2]
B1 | binds | –
B2 | – | no binding
